Assay results published in article PMC3046128, “Systematic Two-Hybrid and Comparative Proteomic Analyses Reveal Novel Yeast Pre-mRNA Splicing Factors Connected to Prp19” (PLoS ONE, 2011).
Each block holds one binder with its values, some of them ahead of it.

Key:
[1] = molecular target: T1, full length S. cerevisiae Prp19 (S. cerevisiae, UniProt P32523 1-503); test: AUC; sedimentation velocity, 30,000 rpm, 22°C, 280 nm; Sedfit c(s) analysis; ScPrp19 constant with His6-ScUrn1 at 1∶1 or 1∶2.5 molar ratio; conditions: both partners purified
T1 construct: Prp19, S. cerevisiae, full length (mass 58.6 kDa); no tag is printed for Prp19 in this experiment; also called ScPrp19; source: E. coli BL21 (pETDuet-1), co-expressed with His6-ScUrn1, purified (Ni-NTA agarose, heparin agarose, gel filtration)
T1 sequence (looked up): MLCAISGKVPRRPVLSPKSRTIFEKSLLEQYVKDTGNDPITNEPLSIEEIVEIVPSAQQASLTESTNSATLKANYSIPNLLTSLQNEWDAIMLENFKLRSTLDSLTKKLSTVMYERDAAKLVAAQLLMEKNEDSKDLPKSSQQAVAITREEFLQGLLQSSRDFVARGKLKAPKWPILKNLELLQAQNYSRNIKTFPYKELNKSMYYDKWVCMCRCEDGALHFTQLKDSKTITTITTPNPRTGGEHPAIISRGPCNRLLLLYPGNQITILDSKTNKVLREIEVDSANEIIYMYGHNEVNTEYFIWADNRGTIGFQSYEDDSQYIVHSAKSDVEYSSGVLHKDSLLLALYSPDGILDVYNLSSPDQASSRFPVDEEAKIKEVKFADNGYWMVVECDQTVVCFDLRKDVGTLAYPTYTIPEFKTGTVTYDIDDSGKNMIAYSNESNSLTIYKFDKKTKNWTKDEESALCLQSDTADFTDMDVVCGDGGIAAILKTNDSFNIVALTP

His6-ScPrp19(144–503) = molecular target: T2, His6-ScPrp19(144–503) (S. cerevisiae, UniProt P32523 144-503); test: pull-down; purified soluble MBP fusions incubated one hour at 4°C with Ni-NTA beads coated with His6-ScPrp19(144–503); washed; SDS-PAGE and Coomassie staining; conditions: both partners purified
T2 construct: Prp19, S. cerevisiae, amino acids 144–503; also called His6-Prp19(144–503); ScPrp19 WD40 domain; source: E. coli BL21 (pET15b), purified (Ni-NTA agarose)
T2 sequence (looked up): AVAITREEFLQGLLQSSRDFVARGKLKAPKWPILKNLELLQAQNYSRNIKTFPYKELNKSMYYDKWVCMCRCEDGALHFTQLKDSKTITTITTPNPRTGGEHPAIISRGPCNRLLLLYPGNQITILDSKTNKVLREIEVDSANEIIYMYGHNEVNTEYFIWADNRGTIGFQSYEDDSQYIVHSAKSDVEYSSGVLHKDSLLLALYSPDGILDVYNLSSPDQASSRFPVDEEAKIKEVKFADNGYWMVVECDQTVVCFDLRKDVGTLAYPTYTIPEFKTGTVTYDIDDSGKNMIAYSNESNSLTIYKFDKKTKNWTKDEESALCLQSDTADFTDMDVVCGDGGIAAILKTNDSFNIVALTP

[2] = molecular target: T3, full length S. cerevisiae Prp19 (S. cerevisiae), P32523; test: AUC; sedimentation velocity, 30,000 rpm, 22°C, 280 nm; Sedfit c(s) analysis; ScPrp19 constant with His6-ScUrn1 at 1∶1 or 1∶2.5 molar ratio; conditions: remark: other sources report otherwise
T3 chain: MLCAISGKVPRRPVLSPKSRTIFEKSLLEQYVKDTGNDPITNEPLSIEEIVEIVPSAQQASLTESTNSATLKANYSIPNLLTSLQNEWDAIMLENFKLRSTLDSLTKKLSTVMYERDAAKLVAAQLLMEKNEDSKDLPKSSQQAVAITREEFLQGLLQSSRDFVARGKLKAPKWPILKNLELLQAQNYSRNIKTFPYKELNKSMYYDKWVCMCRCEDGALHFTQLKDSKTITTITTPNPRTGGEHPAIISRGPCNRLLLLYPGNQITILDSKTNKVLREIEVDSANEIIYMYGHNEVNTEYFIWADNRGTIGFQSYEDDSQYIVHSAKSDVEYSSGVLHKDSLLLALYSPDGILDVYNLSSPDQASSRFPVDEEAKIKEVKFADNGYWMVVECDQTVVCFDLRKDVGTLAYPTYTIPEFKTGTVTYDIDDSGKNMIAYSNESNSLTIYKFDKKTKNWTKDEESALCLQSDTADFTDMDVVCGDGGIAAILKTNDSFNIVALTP

S. pombe Prp19-Myc13 = molecular target: T4, S. pombe Prp19-Myc13 (S. pombe, UniProt O14011 1-488); test: co-IP; anti-HA immunoprecipitate from S. pombe cwf7-HA3 prp19-Myc13 prp17-Myc13 cells; anti-Myc immunoblot quantified on an Odyssey instrument; conditions: partners not purified
T4 construct: Prp19 (Cwf8), S. pombe, open reading frame tagged at the 3' end of the endogenous locus; also called SpPrp19; Cwf8; source: S. pombe, tagged at the endogenous locus, in lysate; not shown: Myc13, C-terminal, kept
T4 sequence (looked up): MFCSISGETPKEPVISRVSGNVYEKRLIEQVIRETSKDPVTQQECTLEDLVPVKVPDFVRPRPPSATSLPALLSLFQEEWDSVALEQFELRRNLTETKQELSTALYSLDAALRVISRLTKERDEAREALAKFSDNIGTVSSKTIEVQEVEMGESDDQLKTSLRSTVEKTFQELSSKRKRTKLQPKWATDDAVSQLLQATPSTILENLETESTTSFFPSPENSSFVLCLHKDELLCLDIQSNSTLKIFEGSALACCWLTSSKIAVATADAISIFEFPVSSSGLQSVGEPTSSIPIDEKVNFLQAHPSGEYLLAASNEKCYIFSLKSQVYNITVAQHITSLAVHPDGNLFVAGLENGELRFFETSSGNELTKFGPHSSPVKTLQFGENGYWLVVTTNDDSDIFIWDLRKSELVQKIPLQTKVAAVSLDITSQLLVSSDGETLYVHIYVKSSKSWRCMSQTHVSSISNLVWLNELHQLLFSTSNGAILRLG

binding result (His6-ScPrp19(144–503)): binds
B2: MBP-ScPrp17(1–140) (domain or fragment, S. cerevisiae, UniProt P40968 1-140, looked up)
chain: MGLVDGYDTSSDSDLNFDEGKSVHEKKNGNLHEDTSYEPSSNNIHKRKSHFTKSELKRRRKTRKGDGPWGSWSSSDDETSQASETQKEDQDIFVHALAEDNLDSEQIEVEEVSHFYGKSEKDYQGRGYLYPPNDVDVDLR
notes: Prp17/Cdc40, S. cerevisiae, residues 1–140; source: E. coli BL21 (pMAL-c2X), purified (amylose beads)

stoichiometry N [2]: 4
B4: full length S. cerevisiae Prp19, P32523 1-503 (natural protein)
chain: MLCAISGKVPRRPVLSPKSRTIFEKSLLEQYVKDTGNDPITNEPLSIEEIVEIVPSAQQASLTESTNSATLKANYSIPNLLTSLQNEWDAIMLENFKLRSTLDSLTKKLSTVMYERDAAKLVAAQLLMEKNEDSKDLPKSSQQAVAITREEFLQGLLQSSRDFVARGKLKAPKWPILKNLELLQAQNYSRNIKTFPYKELNKSMYYDKWVCMCRCEDGALHFTQLKDSKTITTITTPNPRTGGEHPAIISRGPCNRLLLLYPGNQITILDSKTNKVLREIEVDSANEIIYMYGHNEVNTEYFIWADNRGTIGFQSYEDDSQYIVHSAKSDVEYSSGVLHKDSLLLALYSPDGILDVYNLSSPDQASSRFPVDEEAKIKEVKFADNGYWMVVECDQTVVCFDLRKDVGTLAYPTYTIPEFKTGTVTYDIDDSGKNMIAYSNESNSLTIYKFDKKTKNWTKDEESALCLQSDTADFTDMDVVCGDGGIAAILKTNDSFNIVALTP

More lines, now with the values behind:

B1: His6-ScUrn1 (natural protein, S. cerevisiae, UniProt Q06525 1-465, looked up)
chain: MRGEWQEFKTPAGKKYYYNKNTKQSRWEKPNLKKGSNLESNAKESQTERKPTFSLELVNGWHLIIYNDGTKLYFNDDSKEFKNDISQEDDSRCRSLIESLDKEKLVLLIGVARGYTMREEDIDKILESCNEEIHLFKRNQDEVERKDEISEEAGDVKSPLQESHTGLVSGYGSSSGEEDEEEDEEEDEENEEQIVNQDISIIDDLNRIDTDDIDERNIFFELFDRYKLDKFSTWSLQSKKIENDPDFYKIRDDTVRESLFEEWCGERSGNATAEESDSEDNSEDDSEVLEPTKYHYLAQIVANAGTIAPDTIPQDIRKQQKALYKAYKIKEYIPSKRDQDKFVSQLLFYYKTFDLEQRKEIFCDCLRDHERDFTGAVESLRQDKELIDRWQTLLKAPADSSSIEDILLSIEHRCCVSPIVVTEPRYYVVGILEKTVVWVRWLAAEVGPSSRFTPVGAGNEPINPE
notes: Urn1, S. cerevisiae (His6-ScUrn1 mass 55.1 kDa); the printed mass fits the whole protein; also called His6-Urn1; source: E. coli BL21 (pETDuet-1), co-expressed with ScPrp19, purified (Ni-NTA agarose, heparin agarose, gel filtration)
stoichiometry N [1]: 1 Urn1 per Prp19 tetramer

B3: MBP-ScUrn1(165–274) (domain or fragment, S. cerevisiae, UniProt Q06525 165-274, looked up)
chain: TGLVSGYGSSSGEEDEEEDEEEDEENEEQIVNQDISIIDDLNRIDTDDIDERNIFFELFDRYKLDKFSTWSLQSKKIENDPDFYKIRDDTVRESLFEEWCGERSGNATAE
notes: source: E. coli BL21 (pMAL-c2X), purified (amylose beads)
binding result (His6-ScPrp19(144–503)): binds

B5: S. pombe Prp17-Myc13 (natural protein, UniProt O43071 1-558, looked up)
chain: MLVANYSSDSEEQENSQSPNIQPLLHTENLAPAVVDNVKDDLIVSKGGNSRELARNVPVNEMVQPALGPANPFVTKEQDSIKNSITGYAEREYVPNFVFNQEYYANTHAIYGKRNFDDNEATTSTDLKRKSQKIKERREDPGDPSILEGDGAYKGPWAGYGSEQSSSPLEYSEYEEVESLDVKSEKDTESNNLGQNELLKEQLATPEVETHRSKEETILHKDRLFDYQNRSYMHVPNDVGINLSEEPGEQTCYIPKKHIFTWKGHTKGISCLRFFPISGHLLLSGSMDNQIKIWEVYHDRSLLRTFQGHARPIRDLSFSQDGRSFLSTSFDKTIKLWDTELGKCLNCFNSDRLTNCVKFQVDPDKPNEFLAGTADKRILQFDIRSPDIVQAYDHHLGGINSITFLENGKRFVTTSDDSSMRFWEYGTPVPIKFVADIAMHSMPRVALRPNGKSIACQSLDNCIYVYSAYEKYRQNKKKVFKGYSCSGYSLEVGFSPDGRFVFSGDSSGNACFWDWKTCKLMAKLPAHSGPVQSMAFHPQETSKVATSSIVDGSIKYWD
notes: Prp17, S. pombe, open reading frame tagged at the 3' end of the endogenous locus; also called SpPrp17; source: S. pombe, tagged at the endogenous locus, in lysate; not shown: Myc13, C-terminal, kept
stoichiometry N (S. pombe Prp19-Myc13): 1.05 ratio of Myc-tagged proteins
